The text below walks through data of paper PMC10141234, “Adjusting Heterodimeric Coiled-Coils (K/E Zipper) to Connect Autophagy-Inducing Peptide with Cell-Penetrating Peptide” (Pharmaceutics, 2023).

Assay [1] has as its target E2-CPP (Fam-labelled octaarginine cell-penetrating peptide with two EIAALEK units at its N-terminus). The conditions noted are these: scale: LC3-II/actin ratio.
Assay [2] addresses E3-CPP (Fam-labelled octaarginine cell-penetrating peptide with three EIAALEK units at its N-terminus). Nature of the assay: other fluorescence titration; En-CPP (Fam) fixed at 50 nM, AIP-Kn (Tmr) added to Tmr/Fam ratios 0-2.0; PBS pH 7.0, 25 °C; excitation 495 nm, Fam fluorescence at 525 nm quenched by FRET to Tmr; Kd by fit to equation (1), with the saturation intensity Fs taken from AIP-K4/E4-CPP.

Assay [3] has the same target. The conditions noted are these: scale: LC3-II/actin ratio.
For assay [4], the target named is E4-CPP (Fam-labelled octaarginine cell-penetrating peptide with four EIAALEK units at its N-terminus). Description: other fluorescence titration; En-CPP (Fam) fixed at 50 nM, AIP-Kn (Tmr) added to Tmr/Fam ratios 0-2.0; PBS pH 7.0, 25 °C; excitation 495 nm, Fam fluorescence at 525 nm quenched by FRET to Tmr; Kd by fit to equation (1), with the saturation intensity Fs taken from AIP-K4/E4-CPP.
E4-CPP (Fam-labelled octaarginine cell-penetrating peptide with four EIAALEK units at its N-terminus), sequence (peptide, as listed by the source): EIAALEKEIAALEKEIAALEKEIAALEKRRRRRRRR

The target is the same in assay [5]. The conditions noted are these: scale: LC3-II/actin ratio.
The next assay relates to HeLa cells. Description: Intracellular delivery of K/E hybrids by confocal laser microscopy. The class given is cell-based. The conditions noted are these: 10 μM equimolar AIP-Kn/En-CPP mixture, 1 h, 37 °C, conclusion from Fam/Tmr signals. On the procedure: HeLa cells were cultured in DMEM supplemented with 10% heat-inactivated FBS in a 5% CO2 incubator at 37 °C. The HeLa cell line has been stocked and propagated in Dr. Masaaki Miyazawa’s laboratory.
AIP-Kn and En-CPP (n = 2, 3, and 4) were dissolved in DMSO at 10 mM each to make a stock peptide solution. The stock solution was diluted to the desired concentration using Opti-MEM. Equal volumes of the diluted AIP-Kn and En-CPP were mixed in a 1.5 mL tube for 1 h with rotation at room temperature to generate hybrids. For single-component controls (AIP-Kn or En-CPP only), equal volumes of the diluted AIP-Kn or En-CPP and Opti-MEM with DMSO, which was added instead of the stock peptide solution, were mixed in a 1.5 mL tube, and the mixture was then treated in a manner similar to that for the hybrid formation. […]
One day before peptide treatment, 1 × 10^5 cells in 2 mL of HeLa cells were seeded on a glass-bottomed dish (Matsunami Glass, Osaka, Japan) and cultured in a 5% CO2 incubator at 37 °C. […] After washing the cells, 2 mL of PBS was added and fluorescence signals from the cells were observed using a confocal laser microscope with a Plan Apo 60× oil-immersion DIC H objective (CLMS; C2si Ready; Nikon, Tokyo, Japan). Data were analyzed using NIS-Elements Advanced research software (Nikon).

E3-CPP (Fam-labelled octaarginine cell-penetrating peptide with three EIAALEK units at its N-terminus), sequence (peptide, as listed by the source): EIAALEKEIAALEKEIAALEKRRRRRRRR
E2-CPP (Fam-labelled octaarginine cell-penetrating peptide with two EIAALEK units at its N-terminus), sequence (peptide, as listed by the source): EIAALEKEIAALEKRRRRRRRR

On to “AIP-K2 (Tmr-labelled autophagy-inducing peptide with two KIAALKE units at its C-terminus)”, for which the autophagy induction in HeLa cells, LC3-II/actin ratio by immunoblot, 10 μM, 3 h, relative to AIP-K3/E3-CPP in assay [1] is 0.08.

Consider “AIP-K3 (Tmr-labelled autophagy-inducing peptide with three KIAALKE units at its C-terminus)”, for which, in assay [2], the Kd stood at 20 nM and the stoichiometry N is 1. The autophagy induction in HeLa cells, LC3-II/actin ratio by immunoblot, 10 μM, 3 h, the reference of the ratio in assay [3] came to 1.

For “AIP-K4 (Tmr-labelled autophagy-inducing peptide with four KIAALKE units at its C-terminus)”, in assay [4], the Kd worked out at 2 nM and the stoichiometry N amounted to 1. The autophagy induction in HeLa cells, LC3-II/actin ratio by immunoblot, 10 μM, 3 h, relative to AIP-K3/E3-CPP in assay [5] is 0.59.

For the substance “Fam-(EIAALEK)2-RRRRRRRR [E2-CPP, octaarginine modified with (EIAALEK)2 at its N-terminus, labeled with fluorescein]”, the “intracellular delivery (translocation into cells)” value in the assay with HeLa cells is listed as “alone translocates across the plasma membrane”.

For orientation: Kd means the equilibrium constant for the complex coming apart. For orientation: stoichiometry N means the number of molecules, sites or subunits per partner or assembly.
